From article PMC7988105

Columns and labels:
[1] = target: NRXN1β (lacking SS4) Fc fusion used as bait in the pull-down; assay: pull-down; soluble recombinant proteins mixed at 0.03 μM each in HBSS, 2 mM CaCl2, 1 mM MgCl2, 3 h, then Protein A-Sepharose 1 h, room temperature; NLGN3-His6 detected with anti-His
[2] = target: NLGN3 ECD HSE/AAA mutant (H279A S280A E281A) with His6 tag (mouse) (UniProt Q8BYM5); assay: ITC; NLGN3 ECD (20 µM) in the cell, PTPδ Ig1–Fn1 (200 µM) injected; 20 mM Tris-HCl pH 8.0, 150 mM NaCl, 25 °C; one-site model
Chain of NLGN3 ECD HSE/AAA mutant (H279A S280A E281A) with His6 tag (mouse) (Q8BYM5 35-684 H279A/S280A/E281A): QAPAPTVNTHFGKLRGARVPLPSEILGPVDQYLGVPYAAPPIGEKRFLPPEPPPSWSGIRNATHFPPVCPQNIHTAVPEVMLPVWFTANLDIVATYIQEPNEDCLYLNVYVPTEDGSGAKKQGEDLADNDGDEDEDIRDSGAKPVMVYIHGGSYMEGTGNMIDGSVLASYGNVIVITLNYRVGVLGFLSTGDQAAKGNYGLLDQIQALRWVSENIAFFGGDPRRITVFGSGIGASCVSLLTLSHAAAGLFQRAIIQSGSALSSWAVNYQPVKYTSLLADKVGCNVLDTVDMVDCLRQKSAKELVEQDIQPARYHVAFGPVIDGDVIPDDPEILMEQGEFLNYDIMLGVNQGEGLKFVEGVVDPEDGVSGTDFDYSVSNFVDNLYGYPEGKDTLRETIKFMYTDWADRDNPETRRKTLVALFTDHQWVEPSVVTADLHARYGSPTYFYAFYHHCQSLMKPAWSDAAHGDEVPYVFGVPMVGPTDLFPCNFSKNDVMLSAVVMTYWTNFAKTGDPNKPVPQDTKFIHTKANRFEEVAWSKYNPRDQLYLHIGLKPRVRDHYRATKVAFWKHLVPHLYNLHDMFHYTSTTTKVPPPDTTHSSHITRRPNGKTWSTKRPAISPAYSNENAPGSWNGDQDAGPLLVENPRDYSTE

[3] = target: NLGN3 ECD MF/IS mutant (M614I F615S) with His6 tag (mouse) (UniProt Q8BYM5); assay: as above
Chain of NLGN3 ECD MF/IS mutant (M614I F615S) with His6 tag (mouse) (Q8BYM5 35-684 M614I/F615S): as the sequence (Q8BYM5 35-684 H279A/S280A/E281A) above, with A245H, A246S, A247E, M580I, F581S counted along it

[4] = target: mouse NLGN3 ECD (residues 35–684) with C-terminal His6 tag (mouse) (UniProt Q8BYM5); assay: as above
Chain of mouse NLGN3 ECD (residues 35–684) with C-terminal His6 tag (mouse) (Q8BYM5 35-684): as the sequence (Q8BYM5 35-684 H279A/S280A/E281A) above, with A245H, A246S, A247E counted along it

[5] = target: PTPδA3B– extracellular domain fused to Fc; assay: pull-down; conditions: parent: est. 100; read off a plot

Row | Substance | percent of parent [5] [% WT] | also measured
1 | NLGN3 ECD R448C mutant (R/C; equivalent to human R451C) with His6 tag (from UniProt Q8BYM5 35-684) (domain or fragment) |  | pulldown efficiency (% of wild-type) (% of wild-type) [1]: 40
2 | PTPδA3B– Ig1–Fn1 (domain or fragment) |  | Kd [2]: 1.4 µM; Kd [3]: 27 µM; Kd [4]: 4.4 µM
3 | mouse NLGN3 ECD (residues 35–684) with C-terminal His6 tag (from UniProt Q8BYM5) D362A; E372A; N375A | 16 | 
4 | mouse NLGN3 ECD (residues 35–684) with C-terminal His6 tag (from UniProt Q8BYM5) H279A; S280A; E281A | 88 | 
5 | mouse NLGN3 ECD (residues 35–684) with C-terminal His6 tag (from UniProt Q8BYM5) M614A; F615A | 11 | 
6 | mouse NLGN3 ECD (residues 35–684) with C-terminal His6 tag (from UniProt Q8BYM5) M614I; F615S | 14 | 
